# Source: patent US20100273983A1, “METHOD OF PURIFYING PEPTIDES BY SELECTIVE PRECIPITATION” (The University of Queensland, priority 2007, published 2010)
# Tests used:
# Assay type in all cases: physicochemical
# [1] = Ethanol precipitation of AM1-spiked E. coli cell lysate supernatant containing MBP; AM1 in supernatants and pellets by RP-HPLC
# Protocol: For the precipitation with ethanol the cell lysate supernatant was spiked with chemically synthesized AM1 peptide to a final concentration of 0.286 μg AM1 per μL. AM1 was custom synthesized by Genscript (Piscataway, USA). The purity was >95% by reversed-phase high performance liquid chromatography. The peptide was stored in a lyophilized form and was dissolved in 0.1% v/v TFA prior to use (cAm1=1 mg/mL).
# For the ethanol precipitation experiment, 420 μL of AM1 (in 0.1% v/v TFA, 1 μg/μL) was added to 1050 μL of lysate supernatant and mixed by vortexing. The samples were prepared with different ethanol concentrations ranging from 50-75% (v/v).
# The samples were incubated on a roller mixer at speed adjustment 7.5 for 17 h. The tubes were centrifuged at 15,000 rpm for 10 min. […] The protein present in the urea dissolved pellets, as well as the supernants was directly analyzed by Bradford and SDS-PAGE.
# For quantitative analysis of AM1 peptide in the supernatants and pellets, reversed-phase high performance liquid chromatography (RP-HPLC) was used with an analytical C18 column (Jupiter 00F-4053-E0, Phenomenex, UK). […]
# The retention time of AM1 at the above mentioned elution gradient and flow rate was tR=21.5 min. […] The following equation was used to determine the amount of AM1 in the supernatants and pellets as a function of the peak area detected by RP-HPLC: Detected peak area/1207925=μg of AM1 peptide.
# [2] = Solvent (ethanol/acetone) precipitation of TEVp cleaved Trx-P11-2 homogenate; peptide in supernatants and pellets by HPLC
# Protocol: Homogenate was heat-treated by incubating samples in a water bath at 55° C. for 15 min. The effect on the solubility of the fusion protein was assessed by SDS-PAGE and HPLC analysis of heat-treated homogenate before and after centrifugation (10000×g, 10 min). The effect on the stability of the P11-2 peptide was analyzed by comparing cleavage reactions (at 0, 1, 2 and 3 h) with a final substrate concentration of 160 μM Trx-P11-2 and 8 μM TEVp, prepared with heat-treated and non heat-treated homogenate. Conditions were optimized by evaluating reactions prepared with 8 μM TEVp and 160, 240 and 320 μM Trx-P11-2 after 0, 1, 2 and 3 h. The effect of salt on enzyme activity was assessed by analyzing cleavage reactions prepared with 8 μM TEVp and 320 μM Trx-P11-2, that were supplemented with either 50, 150 or 250 mM NaCl. These cleavage reactions were analyzed at 0, 1, 2 and 3 h by SDS-PAGE and HPLC. After 3 h, ethanol was added to a final concentration of 75% (v/v) and samples were incubated at room temperature for 10 min before centrifuging at 10 000×g for 5 min. The supernatants were diluted with water to reduce the percentage of ethanol and analyzed by HPLC.
# All precipitation experiments were performed with the same batch of Trx-P11-2, cleaved with a 40:1 (substrate:enzyme) molar ratio, a substrate concentration of 320 μM (5.12 mg ml^−1) and in the presence of 250 mM NaCl. The precipitation samples were centrifuged for 5 min at 10000×g, and the supernatants collected and analyzed by HPLC to quantify the peptide present. The pellets were resuspended in 6 M guanidine hydrochloride to the same volume as the supernatants, and analysed by HPLC. Acetone and ethanol precipitations were performed using HPLC grade ethanol and acetone, which was added to samples to final concentrations of 20, 40, 60, 65, 70, 75, 80, and 85% (v/v) before incubating for 10 min at room temperature and centrifuging for 5 min at 10000×g. The supernatants were collected and dried using an RVC 2-18 speed-vac (Christ, Osterode, Germany), the pellets were air-dried and both were resuspended in 6 M guanidine hydrochloride. The samples were analyzed by HPLC to quantify the peptide and Bradford assay to quantify the total protein remaining. The peptide and protein remaining in the pellets and supernatants were compared to the results obtained for the starting cleavage reactions to determine the percentages of peptide and protein in each fraction.
# Reversed-phase HPLC(RP-HPLC) was carried out using an analytical C5 column (Jupiter, 150 mm×4.6 mm, 5μ, 300 Å) (Phenomenex, Torrance, Calif., USA) connected to a LC-10Avp series HPLC system (Shimadzu, Kyoto, Japan) with a mobile phase A, 0.1% (v/v) trifluoroacetic acid (TFA) in water and B, 90% (v/v) acetonitrile, 0.1% (v/v) TFA in water. Initial analysis of fusion protein and cleavage was performed using a linear gradient from 10% B to 60% B in 50 min at a flow rate of 1 ml min^−1. Peptides were analyzed, collected and quantified using a linear gradient from 10% B to 35% B in 25 min. Final peptide preparation was assessed using a linear gradient from 10% B to 90% B in 80 min. All samples were diluted 1:2 in 6 M guanidine-HCl prior to injection for the purpose of column preservation unless stated otherwise.
# [3] = Stability of peptide and fusion protein in cell homogenate (TEVp cleavage reactions, HPLC/SDS-PAGE); conditions: homogenate without heat-treatment; degradation most likely by cellular proteases
# Protocol: All cleavage reactions were performed with recombinant TEVp, using homogenate prepared as above, where the Trx-P11-2 content had been HPLC quantified. Cleavage reactions were performed in TEVp reaction buffer, at room temperature, in sealed tubes that had been purged of air with nitrogen. All reactions were stopped by the addition of equal volumes of either 6 M guanidine hydrochloride or 2×SDS-PAGE sample buffer and analyzed by HPLC (to quantify peptide generation) and SDS-PAGE (to confirm cleavage of the fusion protein), respectively.
# Homogenate was heat-treated by incubating samples in a water bath at 55° C. for 15 min. […] The effect on the stability of the P11-2 peptide was analyzed by comparing cleavage reactions (at 0, 1, 2 and 3 h) with a final substrate concentration of 160 μM Trx-P11-2 and 8 μM TEVp, prepared with heat-treated and non heat-treated homogenate. […] The effect of salt on enzyme activity was assessed by analyzing cleavage reactions prepared with 8 μM TEVp and 320 μM Trx-P11-2, that were supplemented with either 50, 150 or 250 mM NaCl. These cleavage reactions were analyzed at 0, 1, 2 and 3 h by SDS-PAGE and HPLC. […] The supernatants were diluted with water to reduce the percentage of ethanol and analyzed by HPLC.
# [4] = Solvent (ethanol/acetone) precipitation of TEVp cleaved Trx-P11-2 homogenate; peptide in supernatants and pellets by HPLC; remark: listed apart in the source
Substance,"percentage of AM1 present in the precipitate ([1]; ethanol 50-75% (v/v), 23° C., 17 h, relative to AM1 in starting material)",peptide in the original lysate recovered from the supernatant ([1]; precipitation at greater than 65% (v/v) ethanol),"yield of peptide in the supernatant after precipitation ([2]; 50 mM NaCl, 75% (v/v) ethanol) [%]","yield of peptide in the supernatant after precipitation ([2]; 150 mM NaCl, 75% (v/v) ethanol) [%]","yield of peptide in the supernatant after precipitation ([2]; 250 mM NaCl, 75% (v/v) ethanol) [%]","peptide losses on acetone precipitation ([2]; 75% (v/v) acetone, 250 mM salt)","peptide yield on ethanol precipitation ([2]; 75% (v/v) ethanol, 250 mM salt)","solubility of peptide in acetone ([2]; 85% (v/v) acetone, 250 mM salt)","losses of peptide on ethanol precipitation ([2]; 85% (v/v) ethanol, 250 mM salt) [%]","yield of peptide after removal of contaminating proteins with solvent precipitation ([2]; finalized process, 1 L culture, 75% (v/v) ethanol, 250 mM NaCl) [%]","losses of peptide on precipitation ([2]; room temperature, 70-75% (v/v) ethanol or acetone, 250 mM salt) [%]",stability in homogenate [3],"solubility of purified peptide at high solvent concentrations ([4]; purified peptide, results not shown)","behaviour of peptide on solvent precipitation without salt ([4]; standard TEVp reaction buffer (10 mM Tris-Cl, 0.5 mM EDTA, 5 mM DTT, pH 8.0), in homogenate)"
Ac-MKQLADSLHQLARQVRSLEHA-CONH2 (Ac-MKQLADSLHQLARQVRSLEHA-NH2) [AM1],approximately 5%,Over 80%,–,–,–,–,–,–,–,–,–,–,–,–
QQRFQWQFEQQ [P11-2],–,–,55,81,95,exceeding 30%,over 90%,almost completely insoluble,> 70,95,< 5,quickly degraded,soluble,co-precipitated with the contaminating proteins
